The values below come from publication PMC11165477.

Test [1] deals with Ma1α-neoGreen, expressed in Xenopus laevis oocytes (apple (Malus domestica)). Briefly: single-molecule photobleaching step counting (TIRF); Ma1α-neoGreen alone in X. laevis oocytes, 16-24 h after cRNA injection, vitelline membrane removed, ND96 solution.
For test [2] the target is unchanged. The test is described as follows: single-molecule photobleaching step counting (TIRF); competition: Ma1α-neoGreen in X. laevis oocytes co-injected with 25% or 50% of the total cRNA as untagged Ma1β.

Usually stoichiometry N stands for a count of units in the complex or per binding partner. In test [1], “Ma1α-neoGreen, expressed in Xenopus laevis oocytes (natural protein)” returned a percent of fluorescent spots with two discrete bleaching steps of 72% and a stoichiometry N of 2.
As to “Ma1β, untagged, expressed in Xenopus laevis oocytes (natural protein)”, in test [2], the percent Ma1α-neoGreen dimer population (two bleaching steps) with 25% of the total cRNA as untagged Ma1β was 38% and the percent Ma1α-neoGreen dimer population (two bleaching steps) with 50% of the total cRNA as untagged Ma1β came out at 30%.
